Tests used:
Assay in all cases: cell-based or functional assay
[1] = molecular target: T1, HTRA1 protease domain HTRA1 (cat) (human, UniProt F1N152 165-380 (bovine entry))
[2] = molecular target: T2, full-length HTRA1 (HTRA1 (full)) (human, UniProt Q92743 23-480)
[3] = molecular target: T1, HTRA1 protease domain HTRA1 (cat); remark: listed apart in the source
[4] = molecular target: T2, full-length HTRA1 (HTRA1 (full)); remark: listed apart in the source

T1 sequence (F1N152 165-380): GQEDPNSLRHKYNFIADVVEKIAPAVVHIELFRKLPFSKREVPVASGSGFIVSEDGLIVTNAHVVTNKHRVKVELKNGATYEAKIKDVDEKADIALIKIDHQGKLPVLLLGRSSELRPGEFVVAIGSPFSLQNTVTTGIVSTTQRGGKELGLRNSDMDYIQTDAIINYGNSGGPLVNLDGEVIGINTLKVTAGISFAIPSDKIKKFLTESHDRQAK
T2 sequence (Q92743 23-480): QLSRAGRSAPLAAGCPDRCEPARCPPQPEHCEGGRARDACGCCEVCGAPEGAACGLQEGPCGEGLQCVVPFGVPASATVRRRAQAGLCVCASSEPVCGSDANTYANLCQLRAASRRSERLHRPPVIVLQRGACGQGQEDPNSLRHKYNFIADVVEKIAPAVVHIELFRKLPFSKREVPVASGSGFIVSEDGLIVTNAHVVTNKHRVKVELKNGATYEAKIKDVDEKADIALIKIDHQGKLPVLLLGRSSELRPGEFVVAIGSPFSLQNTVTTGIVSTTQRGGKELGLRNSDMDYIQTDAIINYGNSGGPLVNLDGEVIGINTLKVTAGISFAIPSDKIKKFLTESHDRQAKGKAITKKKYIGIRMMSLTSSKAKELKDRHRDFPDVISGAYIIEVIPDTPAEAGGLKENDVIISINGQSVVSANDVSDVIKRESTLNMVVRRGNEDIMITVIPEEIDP

B1: peptide derivative H322AT (designed binder)
chain: DPQFGLFSKYRTPNCSQHEGMACYALYEPVCGSDMSTYANECTLCMKIREGGHNIKIIRNGPCGG
[1]
  IC50 (nM) for HTRA1 (cat); decomposition rate of substrate peptide H2-Opt: 45 nM
[2]
  IC50 (nM) for HTRA1 (full); decomposition rate of substrate peptide H2-Opt: 25 nM

B2: peptide derivative H308AT (designed binder)
chain: DPQFGLFSKYRTPNCSDHAGMACVALYEPVCGSDMSTYANECTLCMKIREGGHNIKIIRNGPCGG
[1]
  IC50 (nM) for HTRA1 (cat); decomposition rate of substrate peptide H2-Opt: 49 nM
[2]
  IC50 (nM) for HTRA1 (full); decomposition rate of substrate peptide H2-Opt: 31 nM

B3: peptide H321 (designed binder)
chain: DPQFGLFSKYRTPNCSDFDGMACYAFYEPVCGSDMSTYMNECALCMKIREGGHNIKIIRNGPCGG
[1]
  IC50 (nM) for HTRA1 (cat); decomposition rate of substrate peptide H2-Opt: 48 nM
[2]
  IC50 (nM) for HTRA1 (full); decomposition rate of substrate peptide H2-Opt: 29 nM

B4: peptide H223 (designed binder)
chain: DPQFGLFSKYRTPNCTMDMGMACWAFYEPVCGSDMSTYANECTLCMKIREGGHNIKIIRNGPCGG
[1]
  IC50 (nM) for HTRA1 (cat); decomposition rate of substrate peptide H2-Opt: 41 nM
[2]
  IC50 (nM) for HTRA1 (full); decomposition rate of substrate peptide H2-Opt: 66 nM

B5: peptide M7 (designed binder)
chain: DPQFGLFSKYRTPNCSDHAGMACVAFYEPVCGSDMSTYANECTLCMKIREGGHNIKIIRNGPCGG
[1]
  IC50 (nM) for HTRA1 (cat); decomposition rate of substrate peptide H2-Opt: 43 nM
[2]
  IC50 (nM) for HTRA1 (full); decomposition rate of substrate peptide H2-Opt: 24 nM

B6: peptide H322 (designed binder)
chain: DPQFGLFSKYRTPNCSQHEGMACYALYEPVCGSDMSTYVNECALCMKIREGGHNIKIIRNGPCGG
[1]
  IC50 (nM) for HTRA1 (cat); decomposition rate of substrate peptide H2-Opt: 50 nM
[2]
  IC50 (nM) for HTRA1 (full); decomposition rate of substrate peptide H2-Opt: 17 nM

B7: peptide H228 (designed binder)
chain: DPQFGLFSKYRTPNCGHYNGWACQAFFEPVCGSDMSTYANECTLCMKIREGGHNIKIIRNGPCGG
[1]
  IC50 (nM) for HTRA1 (cat); decomposition rate of substrate peptide H2-Opt: 71 nM
[2]
  IC50 (nM) for HTRA1 (full); decomposition rate of substrate peptide H2-Opt: 38 nM

B8: peptide H218 (designed binder)
chain: DPQFGLFSKYRTPNCLKSEGMACYAYYEPVCGSDMSTYANECTLCMKIREGGHNIKIIRNGPCGG
[1]
  IC50 (nM) for HTRA1 (cat); decomposition rate of substrate peptide H2-Opt: 72 nM
[2]
  IC50 (nM) for HTRA1 (full); decomposition rate of substrate peptide H2-Opt: 55 nM

B9: peptide derivative H322AT_D1G_S16A (designed binder)
chain: GPQFGLFSKYRTPNCAQHEGMACYALYEPVCGSDMSTYANECTLCMKIREGGHNIKIIRNGPCGG
[3]
  IC50 (nM) for HTRA1 (cat); decomposition rate of substrate peptide H2-Opt (n=3): 12.9 nM
[4]
  IC50 (nM) for HTRA1 (full); decomposition rate of substrate peptide H2-Opt (n=3): 12.2 nM

B10: peptide derivative H321AT (designed binder)
chain: DPQFGLFSKYRTPNCSDFDGMACYAFYEPVCGSDMSTYANECTLCMKIREGGHNIKIIRNGPCGG
[1]
  IC50 (nM) for HTRA1 (cat); decomposition rate of substrate peptide H2-Opt: 46 nM
[2]
  IC50 (nM) for HTRA1 (full); decomposition rate of substrate peptide H2-Opt: 18 nM

B11: peptide derivative H308_D1G_S16A (designed binder)
chain: GPQFGLFSKYRTPNCADHAGMACVALYEPVCGSDMSTYENECVLCMKIREGGHNIKIIRNGPCGG
[3]
  IC50 (nM) for HTRA1 (cat); decomposition rate of substrate peptide H2-Opt (n=3): 7.9 nM
[4]
  IC50 (nM) for HTRA1 (full); decomposition rate of substrate peptide H2-Opt (n=3): 9.1 nM

B12: peptide derivative H321AT_D1G_S16A (designed binder)
chain: GPQFGLFSKYRTPNCADFDGMACYAFYEPVCGSDMSTYANECTLCMKIREGGHNIKIIRNGPCGG
[3]
  IC50 (nM) for HTRA1 (cat); decomposition rate of substrate peptide H2-Opt (n=3): 9 nM
[4]
  IC50 (nM) for HTRA1 (full); decomposition rate of substrate peptide H2-Opt (n=3): 12 nM

B13: peptide H308 (designed binder)
chain: DPQFGLFSKYRTPNCSDHAGMACVALYEPVCGSDMSTYENECVLCMKIREGGHNIKIIRNGPCGG
[1]
  IC50 (nM) for HTRA1 (cat); decomposition rate of substrate peptide H2-Opt: 37 nM
[2]
  IC50 (nM) for HTRA1 (full); decomposition rate of substrate peptide H2-Opt: 15 nM

From patent US20240270803A1 (Daiichi Sankyo, published 2024)
